Key:
[1] = target: Cre-B3 (P1 Bacteriophage) (UniProt P06956); assay: cell-based or functional assay
[2] = target: Cre-B2 (P1 Bacteriophage) (UniProt P06956); assay: cell-based or functional assay
[3] = target: Cre-A3 (P1 Bacteriophage) (UniProt P06956); assay: cell-based or functional assay
Cre-B2 = target: T1, Cre-B2
T1 chain: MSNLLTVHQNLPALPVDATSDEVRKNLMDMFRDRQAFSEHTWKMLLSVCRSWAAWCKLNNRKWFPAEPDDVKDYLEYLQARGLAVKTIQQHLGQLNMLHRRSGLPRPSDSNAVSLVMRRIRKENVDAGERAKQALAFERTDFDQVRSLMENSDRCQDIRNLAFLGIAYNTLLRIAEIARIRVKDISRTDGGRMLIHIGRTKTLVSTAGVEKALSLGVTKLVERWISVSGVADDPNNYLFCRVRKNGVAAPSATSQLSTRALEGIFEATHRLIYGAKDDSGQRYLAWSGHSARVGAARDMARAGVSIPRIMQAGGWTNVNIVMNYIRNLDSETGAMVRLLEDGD

[4] = target: Cre-B1 (P1 Bacteriophage) (UniProt P06956); assay: cell-based or functional assay
[5] = target: Cre-A1 (P1 Bacteriophage) (UniProt P06956); assay: cell-based or functional assay
Cre-B1 = target: T2, Cre-B1
T2 chain: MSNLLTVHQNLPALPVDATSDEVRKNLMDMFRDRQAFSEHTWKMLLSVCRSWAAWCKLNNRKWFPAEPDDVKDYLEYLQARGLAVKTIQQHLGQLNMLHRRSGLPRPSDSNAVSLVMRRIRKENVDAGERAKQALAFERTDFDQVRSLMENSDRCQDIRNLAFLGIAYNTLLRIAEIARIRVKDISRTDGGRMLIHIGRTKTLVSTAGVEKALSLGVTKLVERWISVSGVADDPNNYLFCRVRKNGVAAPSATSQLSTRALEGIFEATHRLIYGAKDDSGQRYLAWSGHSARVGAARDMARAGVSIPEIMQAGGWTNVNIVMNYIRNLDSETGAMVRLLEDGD

Cre-E123LE-R337E = target: T3, Cre-E123LE-R337E
T3 chain: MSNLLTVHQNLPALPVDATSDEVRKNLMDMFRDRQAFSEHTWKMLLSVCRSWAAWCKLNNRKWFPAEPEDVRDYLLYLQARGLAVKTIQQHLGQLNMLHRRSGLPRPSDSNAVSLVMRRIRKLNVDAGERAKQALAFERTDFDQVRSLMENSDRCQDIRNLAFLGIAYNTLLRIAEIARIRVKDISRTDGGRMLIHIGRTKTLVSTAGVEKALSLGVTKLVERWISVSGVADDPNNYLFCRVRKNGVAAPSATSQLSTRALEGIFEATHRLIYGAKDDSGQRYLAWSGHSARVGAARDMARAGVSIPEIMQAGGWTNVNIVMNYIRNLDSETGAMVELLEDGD

B1: Cre-A3 (protein)
chain: MSNLLTVHQNLPALPVDATSDEVRRNLMRMFELRRAFSEHTWKMLLSVCRSWAAWCKLNNRKWFPAEPEDVRDYLLYLQARGLAVKTIQQHLGQLNMLHRRSGLPRPSDSNAVSLVMRRIRKLNVDAGERAKQALAFERTDFDQVRSLMENSDRCQDIRNLAFLGIAYNTLLRIAEIARIRVKDISRTDGGRMLIHIGRTKTLVSTAGVEKALSLGVTKLVERWISVSGVADDPNNYLFCRVRKNGVAAPSATSQLSTRALEGIFEATHRLIYGAKDDSGQRYLAWSGHSARVGAARDMARAGVSIPEIMQAGGWTNVNIVMNYIRNLDSETGAMVELLEDGD
For B1, the RFP positive cells of 7000 sorted, Ai14 mouse ES reporter cells, promoter hbb + cmv, replicate 1 [1] was 1 cells, the RFP positive cells of 7000 sorted, Ai14 mouse ES reporter cells, promoter hbb + cmv, replicate 2 [1] was 2 cells and the RFP positive cells of 7000 sorted, Ai14 mouse ES reporter cells, promoter hbb + cmv, replicate 3 [1] was 1 cells. It also gave an RFP positive cells of 7000 sorted, Ai14 mouse ES reporter cells, promoter hbb + sp1, replicate 1 [1] of 1 cells, an RFP positive cells of 7000 sorted, Ai14 mouse ES reporter cells, promoter hbb + sp1, replicate 2 [1] of 1 cells and an RFP positive cells of 7000 sorted, Ai14 mouse ES reporter cells, promoter hbb + sp1, replicate 3 [1] of 2 cells. For the same binder, the RFP positive cells of 7000 sorted, Ai14 mouse ES reporter cells, promoter hbb, replicate 1 [1] was 0 cells, the RFP positive cells of 7000 sorted, Ai14 mouse ES reporter cells, promoter hbb, replicate 2 [1] was 1 cells and the RFP positive cells of 7000 sorted, Ai14 mouse ES reporter cells, promoter hbb, replicate 3 [1] was 0 cells. It also gave an RFP positive cells of 7000 sorted, Ai14 mouse ES reporter cells, promoter hbb + cmv, replicate 1 [2] of 1600 cells, an RFP positive cells of 7000 sorted, Ai14 mouse ES reporter cells, promoter hbb + cmv, replicate 2 [2] of 1650 cells and an RFP positive cells of 7000 sorted, Ai14 mouse ES reporter cells, promoter hbb + cmv, replicate 3 [2] of 1700 cells. The RFP positive cells of 7000 sorted, Ai14 mouse ES reporter cells, promoter hbb + sp1, replicate 1 [2] was 1500 cells, the RFP positive cells of 7000 sorted, Ai14 mouse ES reporter cells, promoter hbb + sp1, replicate 2 [2] was 1530 cells and the RFP positive cells of 7000 sorted, Ai14 mouse ES reporter cells, promoter hbb + sp1, replicate 3 [2] was 1610 cells. For the same binder, the RFP positive cells of 7000 sorted, Ai14 mouse ES reporter cells, promoter hbb, replicate 1 [2] was 256 cells, the RFP positive cells of 7000 sorted, Ai14 mouse ES reporter cells, promoter hbb, replicate 2 [2] was 233 cells and the RFP positive cells of 7000 sorted, Ai14 mouse ES reporter cells, promoter hbb, replicate 3 [2] was 284 cells. For the same binder, the recombinase activity in mouse ES reporter cells, relative to wild type Cre (% of wild type Cre activity) [2] was 40, the RFP positive cells of 7000 sorted, Ai14 mouse ES reporter cells, promoter hbb + cmv, replicate 1 [3] was 0 cells and the RFP positive cells of 7000 sorted, Ai14 mouse ES reporter cells, promoter hbb + cmv, replicate 2 [3] was 1 cells. The RFP positive cells of 7000 sorted, Ai14 mouse ES reporter cells, promoter hbb + cmv, replicate 3 [3] was 1 cells, the RFP positive cells of 7000 sorted, Ai14 mouse ES reporter cells, promoter hbb + sp1, replicate 1 [3] was 1 cells and the RFP positive cells of 7000 sorted, Ai14 mouse ES reporter cells, promoter hbb + sp1, replicate 2 [3] was 0 cells. For the same binder, the RFP positive cells of 7000 sorted, Ai14 mouse ES reporter cells, promoter hbb + sp1, replicate 3 [3] was 0 cells, the RFP positive cells of 7000 sorted, Ai14 mouse ES reporter cells, promoter hbb, replicate 1 [3] was 0 cells and the RFP positive cells of 7000 sorted, Ai14 mouse ES reporter cells, promoter hbb, replicate 2 [3] was 0 cells. For the same binder, the RFP positive cells of 7000 sorted, Ai14 mouse ES reporter cells, promoter hbb, replicate 3 [3] was 1 cells, the “recombinase activity in vitro on six loxP/M7 hybrid substrates (gel)” value (Cre-B2-C2#4) was “In vitro assays confirmed that the heterotetrameric Cre is more specific in recombining different arrangement of loxP/M7 sites” and the “recombinase activity in vitro (loxP excision, gel)” value (Cre-B2) was “preserving activity in the Cre-A3+Cre-B2 heterotetramer”. The “recombinase activity in vitro (loxP excision, gel)” value was “This mutation successfully disrupted formation of Cre-A2 homotetramers”.

B2: Cre-A1 (protein)
chain: MSNLLTVHQNLPALPVDATSDEVRRNLMRMFELRRAFSEHTWKMLLSVCRSWAAWCKLNNRKWFPAEPEDVRDYLLYLQARGLAVKTIQQHLGQLNMLHRRSGLPRPSDSNAVSLVMRRIRKENVDAGERAKQALAFERTDFDQVRSLMENSDRCQDIRNLAFLGIAYNTLLRIAEIARIRVKDISRTDGGRMLIHIGRTKTLVSTAGVEKALSLGVTKLVERWISVSGVADDPNNYLFCRVRKNGVAAPSATSQLSTRALEGIFEATHRLIYGAKDDSGQRYLAWSGHSARVGAARDMARAGVSIPEIMQAGGWTNVNIVMNYIRNLDSETGAMVRLLEDGD
In the case of B2, the RFP positive cells of 7000 sorted, Ai14 mouse ES reporter cells, promoter hbb + cmv, replicate 1 [4] is reported as 5870 cells, the RFP positive cells of 7000 sorted, Ai14 mouse ES reporter cells, promoter hbb + cmv, replicate 2 [4] is reported as 6030 cells and the RFP positive cells of 7000 sorted, Ai14 mouse ES reporter cells, promoter hbb + cmv, replicate 3 [4] is reported as 6360 cells. It also gave an RFP positive cells of 7000 sorted, Ai14 mouse ES reporter cells, promoter hbb + sp1, replicate 1 [4] of 5700 cells, an RFP positive cells of 7000 sorted, Ai14 mouse ES reporter cells, promoter hbb + sp1, replicate 2 [4] of 6120 cells and an RFP positive cells of 7000 sorted, Ai14 mouse ES reporter cells, promoter hbb + sp1, replicate 3 [4] of 5990 cells. For the same binder, the RFP positive cells of 7000 sorted, Ai14 mouse ES reporter cells, promoter hbb, replicate 1 [4] was 1120 cells, the RFP positive cells of 7000 sorted, Ai14 mouse ES reporter cells, promoter hbb, replicate 2 [4] was 1210 cells and the RFP positive cells of 7000 sorted, Ai14 mouse ES reporter cells, promoter hbb, replicate 3 [4] was 1320 cells. The RFP positive cells of 7000 sorted, Ai14 mouse ES reporter cells, promoter hbb + cmv, replicate 1 [5] was 3850 cells, the RFP positive cells of 7000 sorted, Ai14 mouse ES reporter cells, promoter hbb + cmv, replicate 2 [5] was 3530 cells and the RFP positive cells of 7000 sorted, Ai14 mouse ES reporter cells, promoter hbb + cmv, replicate 3 [5] was 3690 cells. The RFP positive cells of 7000 sorted, Ai14 mouse ES reporter cells, promoter hbb + sp1, replicate 1 [5] was 3750 cells, the RFP positive cells of 7000 sorted, Ai14 mouse ES reporter cells, promoter hbb + sp1, replicate 2 [5] was 3420 cells and the RFP positive cells of 7000 sorted, Ai14 mouse ES reporter cells, promoter hbb + sp1, replicate 3 [5] was 3500 cells. The RFP positive cells of 7000 sorted, Ai14 mouse ES reporter cells, promoter hbb, replicate 1 [5] was 414 cells, the RFP positive cells of 7000 sorted, Ai14 mouse ES reporter cells, promoter hbb, replicate 2 [5] was 378 cells and the RFP positive cells of 7000 sorted, Ai14 mouse ES reporter cells, promoter hbb, replicate 3 [5] was 391 cells. The “recombinase activity in vitro (loxP excision, gel)” value (Cre-B1) was “the combined pair of redesigned mutants was active (Cre-A1+Cre-B1” and the “recombinase activity in vitro (loxP excision, gel)” value was “one of the mutants (Cre-A1) was active individually”.

B3: Cre-E123L-E308R (protein)
chain: MSNLLTVHQNLPALPVDATSDEVRKNLMDMFRDRQAFSEHTWKMLLSVCRSWAAWCKLNNRKWFPAEPEDVRDYLLYLQARGLAVKTIQQHLGQLNMLHRRSGLPRPSDSNAVSLVMRRIRKLNVDAGERAKQALAFERTDFDQVRSLMENSDRCQDIRNLAFLGIAYNTLLRIAEIARIRVKDISRTDGGRMLIHIGRTKTLVSTAGVEKALSLGVTKLVERWISVSGVADDPNNYLFCRVRKNGVAAPSATSQLSTRALEGIFEATHRLIYGAKDDSGQRYLAWSGHSARVGAARDMARAGVSIPRIMQAGGWTNVNIVMNYIRNLDSETGAMVRLLEDGD
In the case of B3, the “recombinase activity in vitro (loxP excision, gel)” value (Cre-E123LE-R337E) is reported as “In vitro assays indicated that these mutants do not form an obligate heterotetrameric pair”.

Source: patent publication US20170058297A1
